From paper PMC4844956 come the findings set out here.

Assay [1] has as its target HEV ORF3 protein fused to the GAL4 binding domain. Description: yeast two-hybrid quantitative α-galactosidase assay. To be noted: triplicate samples, parent: est. 11, read off a plot.
In assay [2] the target is HEV methyltransferase fused to the GAL4 binding domain (UniProt P33424). Described as above. To be noted: triplicate samples, parent: est. 8.7, read off a plot.
The target of assay [3] is GST fused X-domain (Hepatitis E virus) (UniProt P33424). The assay is described as follows: pull-down; ~500 fmol ORF3-His or ~500 fmol Met-His alone with 500 fmol GST-X; bound fraction against input by band intensity.
The target is the same in assay [4]. Description: pull-down; competition: ORF3-His and Met-His together with 500 fmol GST-X, equimolar (~500 fmol) or with 1 and 2 pmol of one of them.

On to “HEV X-domain (macro domain) fused to the GAL4 activation domain (from UniProt P33424) L101E; L102E”, for which the response (normalized α-gal units) in assay [1] stood at 3.2; in assay [2], 1.9.
With “HEV X-domain (macro domain) fused to the GAL4 activation domain (from UniProt P33424) R93E”, the response (normalized α-gal units) stood at 13 in assay [1] (P=0.077 vs wild type X) and 7.6 in assay [2] (P=0.51 vs wild type X).
“HEV X-domain (macro domain) fused to the GAL4 activation domain (from UniProt P33424) I66E; I67E”: in assay [1] (P=0.002 vs wild type X), the response (normalized α-gal units) amounted to 6.2.
As to “His-tagged ORF3 (pRSET ORF3) (from UniProt O90299 1-114) (natural protein)”, the percent of input pulled down in assay [3] is 25%. In assay [4], this substance registered a percent of input in the bound fraction with equimolar Met-His present of 10%.
Turning to “HEV X-domain (macro domain) fused to the GAL4 activation domain (from UniProt P33424) L94R”, the response (normalized α-gal units) in assay [1] (P=0.056 vs wild type X) is 13; in assay [2] (P=0.82 vs wild type X), 8.3.
In the case of “HEV X-domain (macro domain) fused to the GAL4 activation domain (from UniProt P33424) R93E; L101E; L102E”, the response (normalized α-gal units) in assay [1] was determined as 2.9; in assay [2], 1.6.
